Measured values published in patent US20110077250, “COMPOUNDS FOR MODULATING RNA BINDING PROTEINS AND USES THEREFOR” (published 2011).

Target: T1, MEX-5 (UniProt Q9XUB2 Q9XUB2:236-350)
T1 sequence: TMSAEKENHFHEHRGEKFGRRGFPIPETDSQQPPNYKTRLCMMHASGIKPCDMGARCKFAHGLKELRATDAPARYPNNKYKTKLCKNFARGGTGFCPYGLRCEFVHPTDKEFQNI
Experiment: FP; 120 nM protein, 2 nM RNA, 100 uM zinc acetate, 20-50 mM Tris pH 8.0, 40-100 mM NaCl, tRNA; Z-value 0.8-0.9; also by gel shift; small-molecule inhibition of complex measured
Settings: tags: N-terminal MBP fusion (pMal-c, NEB); HTS paragraph says C-terminal fusion to MBP; from Open Biosystems ORFeome clone; label: 3'-fluorescein (FITC)

UUUCUUUAUAACUUGUUACAAUUUUUGAAA (ssRNA) [TCR2 RNA]: binds.
